Results reported in publication PMC9482650, “Quantitative fragmentomics allow affinity mapping of interactomes” (Nature Communications, 2022).

T1: SYNJ2BP, P57105
T1 sequence (P57105 8-110, limits assumed, looked up): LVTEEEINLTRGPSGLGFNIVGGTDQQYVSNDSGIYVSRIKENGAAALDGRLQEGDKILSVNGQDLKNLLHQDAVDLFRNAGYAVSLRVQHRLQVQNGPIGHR

T2: APBA2_1, Q99767
T2 sequence (Q99767 563-664, limits assumed, looked up): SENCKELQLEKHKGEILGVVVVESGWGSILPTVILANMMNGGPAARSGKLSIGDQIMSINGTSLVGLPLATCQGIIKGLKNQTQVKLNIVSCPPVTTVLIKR

T3: PDZD7_3, Q9H5P4
T3 sequence (Q9H5P4 857-944, limits assumed, looked up): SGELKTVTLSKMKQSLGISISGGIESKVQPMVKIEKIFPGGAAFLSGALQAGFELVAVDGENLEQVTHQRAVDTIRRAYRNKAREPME

T4: ARHGAP21, Q5T5U3
T4 sequence (Q5T5U3 45-169, limits assumed, looked up): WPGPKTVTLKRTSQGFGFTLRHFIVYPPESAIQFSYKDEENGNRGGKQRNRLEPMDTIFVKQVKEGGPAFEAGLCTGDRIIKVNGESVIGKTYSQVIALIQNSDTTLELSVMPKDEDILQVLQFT

T5: DVL3, Q92997
T5 sequence (Q92997 244-331, limits assumed, looked up): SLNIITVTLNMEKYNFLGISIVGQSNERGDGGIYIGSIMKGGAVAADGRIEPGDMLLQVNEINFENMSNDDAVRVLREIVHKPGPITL

T6: GRIP1_5, Q9Y3R0
T6 sequence (Q9Y3R0 568-668, limits assumed, looked up): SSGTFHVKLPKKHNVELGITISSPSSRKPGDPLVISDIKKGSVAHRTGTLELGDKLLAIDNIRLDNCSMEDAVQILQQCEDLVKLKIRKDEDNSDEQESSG

T7: DLG3_1, Q92796
T7 sequence (Q92796 125-227, limits assumed, looked up): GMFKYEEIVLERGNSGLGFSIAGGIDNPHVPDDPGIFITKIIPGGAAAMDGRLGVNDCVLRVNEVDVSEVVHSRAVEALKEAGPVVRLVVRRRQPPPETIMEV

T8: FRMPD1, Q5SYB0
T8 sequence (Q5SYB0 52-145, limits assumed, looked up): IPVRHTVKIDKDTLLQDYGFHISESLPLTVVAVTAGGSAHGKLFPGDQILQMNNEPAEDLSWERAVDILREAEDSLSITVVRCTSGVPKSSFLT

T9: DLG3_2, Q92796
T9 sequence (Q92796 221-321, limits assumed, looked up): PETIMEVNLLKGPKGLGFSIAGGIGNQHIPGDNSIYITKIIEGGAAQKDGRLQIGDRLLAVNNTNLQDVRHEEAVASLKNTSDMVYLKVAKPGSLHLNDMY

T10: TJP3_3, O95049
T10 sequence (O95049 375-456, limits assumed, looked up): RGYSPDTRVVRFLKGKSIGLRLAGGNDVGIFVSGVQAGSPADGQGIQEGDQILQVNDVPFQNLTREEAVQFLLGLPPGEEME

T11: SNTB1, Q13884
T11 sequence (Q13884 107-205, limits assumed, looked up): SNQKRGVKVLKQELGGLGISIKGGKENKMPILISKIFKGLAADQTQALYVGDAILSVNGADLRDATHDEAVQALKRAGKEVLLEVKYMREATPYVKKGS

T12: SHANK1, Q9Y566
T12 sequence (Q9Y566 658-767, limits assumed, looked up): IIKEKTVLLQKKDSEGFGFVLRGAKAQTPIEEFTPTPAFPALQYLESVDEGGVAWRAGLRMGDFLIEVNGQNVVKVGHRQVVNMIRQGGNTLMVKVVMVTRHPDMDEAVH

T13: APBA3_1, O96018
T13 sequence (O96018 389-490, limits assumed, looked up): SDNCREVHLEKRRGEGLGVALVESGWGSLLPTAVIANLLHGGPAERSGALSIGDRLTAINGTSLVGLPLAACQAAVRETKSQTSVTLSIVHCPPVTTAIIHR

B1: HDAC7, Q8WUI4 (peptide)
chain: LVEEEEPMNL

Target: T1, SYNJ2BP, P57105
Experiment: holdup assay
Design: key: below the threshold = too weak to quantify, mostly under pKd 3.1 to 4
Conditions: plain residues with an end cap or a label only (N-terminal biotin on a linker: ado-ado)

pKd	Binder
below the threshold	B1

Target: T2, APBA2_1, Q99767
Experiment: holdup assay
Design: key: below the threshold = too weak to quantify, mostly under pKd 3.1 to 4
Conditions: plain residues with an end cap or a label only (N-terminal biotin on a linker: ado-ado)

pKd	Binder
below the threshold	B1

Target: GRID2IP_2, A4D2P6
Experiment: holdup assay
Design: key: below the threshold = too weak to quantify, mostly under pKd 3.1 to 4
Conditions: plain residues with an end cap or a label only (N-terminal biotin on a linker: ado-ado)

GRID2IP_2, A4D2P6, sequence (A4D2P6 272-370): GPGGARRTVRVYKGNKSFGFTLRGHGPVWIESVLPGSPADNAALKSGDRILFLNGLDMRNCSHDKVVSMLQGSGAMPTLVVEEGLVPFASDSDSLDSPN

pKd	Binder
below the threshold	B1

Target: T3, PDZD7_3, Q9H5P4
Experiment: holdup assay
Design: key: below the threshold = too weak to quantify, mostly under pKd 3.1 to 4
Conditions: plain residues with an end cap or a label only (N-terminal biotin on a linker: ado-ado)

pKd	Binder
below the threshold	B1

Target: T4, ARHGAP21, Q5T5U3
Experiment: holdup assay
Design: key: below the threshold = too weak to quantify, mostly under pKd 3.1 to 4
Conditions: plain residues with an end cap or a label only (N-terminal biotin on a linker: ado-ado)

pKd	Binder
3.77	B1

Target: T5, DVL3, Q92997
Experiment: holdup assay
Design: key: below the threshold = too weak to quantify, mostly under pKd 3.1 to 4
Conditions: plain residues with an end cap or a label only (N-terminal biotin on a linker: ado-ado)

pKd	Binder
below the threshold	B1

Target: PDLIM1, O00151
Experiment: holdup assay
Design: key: below the threshold = too weak to quantify, mostly under pKd 3.1 to 4
Conditions: plain residues with an end cap or a label only (N-terminal biotin on a linker: ado-ado)

PDLIM1, O00151, sequence (O00151 1-87): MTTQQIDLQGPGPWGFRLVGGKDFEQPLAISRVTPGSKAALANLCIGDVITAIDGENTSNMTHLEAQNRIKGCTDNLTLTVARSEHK

pKd	Binder
below the threshold	B1

Target: MAGI2_6, Q86UL8
Experiment: holdup assay
Design: key: below the threshold = too weak to quantify, mostly under pKd 3.1 to 4
Conditions: plain residues with an end cap or a label only (N-terminal biotin on a linker: ado-ado)

MAGI2_6, Q86UL8, sequence (Q86UL8 1141-1229): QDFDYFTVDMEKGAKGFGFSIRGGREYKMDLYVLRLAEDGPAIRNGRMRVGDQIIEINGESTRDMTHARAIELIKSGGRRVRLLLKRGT

pKd	Binder
below the threshold	B1

Target: Inadl_4, Q8NI35
Experiment: holdup assay
Design: key: below the threshold = too weak to quantify, mostly under pKd 3.1 to 4
Conditions: plain residues with an end cap or a label only (N-terminal biotin on a linker: ado-ado)

Inadl_4, Q8NI35, sequence (Q8NI35 547-651): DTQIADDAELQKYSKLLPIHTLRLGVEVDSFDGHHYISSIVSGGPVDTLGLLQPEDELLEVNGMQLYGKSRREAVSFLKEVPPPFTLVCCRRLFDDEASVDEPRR

pKd	Binder
below the threshold	B1

Target: MAGI2_5, Q86UL8
Experiment: holdup assay
Design: key: below the threshold = too weak to quantify, mostly under pKd 3.1 to 4
Conditions: plain residues with an end cap or a label only (N-terminal biotin on a linker: ado-ado)

MAGI2_5, Q86UL8, sequence (Q86UL8 915-1017): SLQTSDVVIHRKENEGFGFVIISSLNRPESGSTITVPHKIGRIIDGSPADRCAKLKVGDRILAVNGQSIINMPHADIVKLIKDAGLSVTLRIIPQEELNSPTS

pKd	Binder
below the threshold	B1

Target: T6, GRIP1_5, Q9Y3R0
Experiment: holdup assay
Design: key: below the threshold = too weak to quantify, mostly under pKd 3.1 to 4
Conditions: plain residues with an end cap or a label only (N-terminal biotin on a linker: ado-ado)

pKd	Binder
below the threshold	B1

Target: GRIP2_4, Q9C0E4
Experiment: holdup assay
Design: key: below the threshold = too weak to quantify, mostly under pKd 3.1 to 4
Conditions: plain residues with an end cap or a label only (N-terminal biotin on a linker: ado-ado)

GRIP2_4, Q9C0E4, sequence (Q9C0E4 446-548): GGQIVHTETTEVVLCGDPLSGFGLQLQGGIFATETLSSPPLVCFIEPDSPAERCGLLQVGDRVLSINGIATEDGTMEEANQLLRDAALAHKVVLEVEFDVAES

pKd	Binder
below the threshold	B1

Target: HTRA1, Q92743
Experiment: holdup assay
Design: key: below the threshold = too weak to quantify, mostly under pKd 3.1 to 4
Conditions: plain residues with an end cap or a label only (N-terminal biotin on a linker: ado-ado)

HTRA1, Q92743, sequence (Q92743 360-477): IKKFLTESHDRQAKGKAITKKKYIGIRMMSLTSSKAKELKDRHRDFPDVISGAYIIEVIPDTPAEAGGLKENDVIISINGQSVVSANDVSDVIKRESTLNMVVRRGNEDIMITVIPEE

pKd	Binder
4.16	B1

Target: DLG1_2, Q12959
Experiment: holdup assay
Design: key: below the threshold = too weak to quantify, mostly under pKd 3.1 to 4
Conditions: plain residues with an end cap or a label only (N-terminal biotin on a linker: ado-ado)

DLG1_2, Q12959, sequence (Q12959 314-412): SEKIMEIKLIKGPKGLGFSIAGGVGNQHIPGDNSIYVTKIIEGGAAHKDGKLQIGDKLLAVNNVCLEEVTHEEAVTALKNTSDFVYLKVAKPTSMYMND

pKd	Binder
below the threshold	B1

Target: T7, DLG3_1, Q92796
Experiment: holdup assay
Design: key: below the threshold = too weak to quantify, mostly under pKd 3.1 to 4
Conditions: plain residues with an end cap or a label only (N-terminal biotin on a linker: ado-ado)

pKd	Binder
below the threshold	B1

Target: T8, FRMPD1, Q5SYB0
Experiment: holdup assay
Design: key: below the threshold = too weak to quantify, mostly under pKd 3.1 to 4
Conditions: plain residues with an end cap or a label only (N-terminal biotin on a linker: ado-ado)

pKd	Binder
below the threshold	B1

Target: T9, DLG3_2, Q92796
Experiment: holdup assay
Design: key: below the threshold = too weak to quantify, mostly under pKd 3.1 to 4
Conditions: plain residues with an end cap or a label only (N-terminal biotin on a linker: ado-ado)

pKd	Binder
below the threshold	B1

Target: T10, TJP3_3, O95049
Experiment: holdup assay
Design: key: below the threshold = too weak to quantify, mostly under pKd 3.1 to 4
Conditions: plain residues with an end cap or a label only (N-terminal biotin on a linker: ado-ado)

pKd	Binder
below the threshold	B1

Target: T11, SNTB1, Q13884
Experiment: holdup assay
Design: key: below the threshold = too weak to quantify, mostly under pKd 3.1 to 4
Conditions: plain residues with an end cap or a label only (N-terminal biotin on a linker: ado-ado)

pKd	Binder
below the threshold	B1

Target: T12, SHANK1, Q9Y566
Experiment: holdup assay
Design: key: below the threshold = too weak to quantify, mostly under pKd 3.1 to 4
Conditions: plain residues with an end cap or a label only (N-terminal biotin on a linker: ado-ado)

pKd	Binder
below the threshold	B1

Target: SCRIB_2, Q14160
Experiment: holdup assay
Design: key: below the threshold = too weak to quantify, mostly under pKd 3.1 to 4
Conditions: plain residues with an end cap or a label only (N-terminal biotin on a linker: ado-ado)

SCRIB_2, Q14160, sequence (Q14160 857-960): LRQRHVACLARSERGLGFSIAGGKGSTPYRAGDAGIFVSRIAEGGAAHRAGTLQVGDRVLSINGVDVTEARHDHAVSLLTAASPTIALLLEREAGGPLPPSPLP

pKd	Binder
below the threshold	B1

Target: Inadl_6, Q8NI35
Experiment: holdup assay
Design: key: below the threshold = too weak to quantify, mostly under pKd 3.1 to 4
Conditions: plain residues with an end cap or a label only (N-terminal biotin on a linker: ado-ado)

Inadl_6, Q8NI35, sequence (Q8NI35 1058-1167): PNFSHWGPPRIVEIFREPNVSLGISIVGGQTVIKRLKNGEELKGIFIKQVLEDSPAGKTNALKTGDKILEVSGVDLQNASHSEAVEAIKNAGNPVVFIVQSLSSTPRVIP

pKd	Binder
below the threshold	B1

Target: MAST1, Q9Y2H9
Experiment: holdup assay
Design: key: below the threshold = too weak to quantify, mostly under pKd 3.1 to 4
Conditions: plain residues with an end cap or a label only (N-terminal biotin on a linker: ado-ado)

MAST1, Q9Y2H9, sequence (Q9Y2H9 962-1065): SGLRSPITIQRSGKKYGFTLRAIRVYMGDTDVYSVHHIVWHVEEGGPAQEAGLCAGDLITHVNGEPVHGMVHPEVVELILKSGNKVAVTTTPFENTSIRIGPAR

pKd	Binder
3.61	B1

Target: T13, APBA3_1, O96018
Experiment: holdup assay
Design: key: below the threshold = too weak to quantify, mostly under pKd 3.1 to 4
Conditions: plain residues with an end cap or a label only (N-terminal biotin on a linker: ado-ado)

pKd	Binder
below the threshold	B1
